Data on two molecules can be found in publication PMC8944172 (Antiviral Research, 2022).

The target in this assay is His-tagged RBD of SARS-CoV-2 (SARS-CoV-2, UniProt P0DTC2). The assay is described as follows: SPR.

B1: REG10933 (antibody, V domains shown)
VH: QVQLVESGGGLVKPGGSLRLSCAASGFTFSDYYMSWIRQAPGKGLEWVSYITYSGSTIYYADSVKGRFTISRDNAKSSLYLQMNSLRAEDTAVYYCARDRGTTMVPFDYWGQGTLVTVSS
VL: DIQMTQSPSSLSASVGDRVTITCQASQDITNYLNWYQQKPGKAPKLLIYAASNLETGVPSRFSGSGSGTDFTFTISGLQPEDIATYYCQQYDNLPLTFGGGTKVEIK
B1: the binding result is recorded as “binds”.

B2: REG10987 (antibody, V domains shown)
VH: QVQLVESGGGVVQPGRSLRLSCAASGFTFSNYAMYWVRQAPGKGLEWVAVISYDGSNKYYADSVKGRFTISRDNSKNTLYLQMNSLRTEDTAVYYCASGSDYGDYLLVYWGQGTLVTVSS
VL: QSALTQPASVSGSPGQSITISCTGTSSDVGGYNYVSWYQQHPGKAPKLMIYDVSKRPSGVSNRFSGSKSGNTASLTISGLQSEDEADYYCNSLTSISTWVFGGGTKLTVL
On to B2, for which the binding result is “binds”.
